Data from article PMC3164629.
Where a chain is given by its changes, count along the chain named.

B1: 2F5 reverted unmutated ancestor antibody RUA1 (antibody, V domains shown)
VH: QITLKESGPTLVKPTQTLTLTCTFSGFSLSTSGVGVGWIRQPPGKALEWLALIYWNDDKRYSPSLKSRLTITKDTSKNQVVLTMTNMDPVDTATYYCAHRRGPTTLFGVVIARGPVNGMDVWGQGTTVTVSS
VL: AIQLTQSPSSLSASVGDRVTITCRASQGISSALAWYQQKPGKAPKLLIYDASSLESGVPSRFSGSGSGTDFTLTISSLQPEDFATYYCQQFNNYPHTFGGGTKVEIK
B2: 2F5 reverted unmutated ancestor antibody RUA2 (antibody, V domains shown)
VH: B1 VH with N56D, S62G
VL: B1 VL

Assays:
SPR = substrate: CON-S gp140CFI Env, natively deglycosylated with PNGase F 500 U per µg (HIV-1 group M consensus); assay: SPR
[1] = biological target: group M consensus gp140 Env, CON-S gp140CFI, WT glycosylated (HIV-1 group M consensus); assay: SPR

Row | Binder | Kd (SPR) | Kd [1]
1 | B1 | 67 nM | 118 nM
2 | B2 | 360 nM | 4000 nM
